From patent US20240270846A1 (published 2024)

These binders were tested against T1, CD3 epsilon homodimer protein (UniProt P07766 23-126) (assay: SPR (Biacore T200), CD3 epsilon homodimer on CM4 chip, one-arm antibody as analyte; ratio to unaltered CE115HA000;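 also: surface plasmon resonance run at 25 °C with HBS-EP+ as running buffer, CD3 epsilon homodimer attached by amine coupling, antibody passed over as analyte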).
T1 construct: Construct of the homodimer protein is not described; also called CD3 (CD3 epsilon)
T1 sequence (P07766 23-126): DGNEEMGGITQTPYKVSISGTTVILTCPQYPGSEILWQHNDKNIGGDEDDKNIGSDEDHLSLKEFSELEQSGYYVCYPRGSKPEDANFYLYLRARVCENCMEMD

| Binder | KD ratio (KD value of CE115HA000/KD value of the altered form) |
| --- | --- |
| CE115HA000 D101G one-arm antibody (antibody, human IgG1, kappa, L234A L235A, N297A, name in Kabat numbering, one-arm antibody) heavy: QVQLVESGGGVVQPGRSLRLSCAASGFTFSNAWMHWVRQAPGKGLEWVAQIKAKSNNYATYYAESVKGRFTISRDDSKNSLYLQMNSLKTEDTAVYYCRYVHYGAYYGVGAWGQGTTVTVSSASTKGPSVFPLAPSSKSTSGGTAALGCLVKDYFPEPVTVSWNSGALTSGVHTFPAVLQSSGLYSLSSVVTVPSSSLGTQTYICNVNHKPSNTKVDKKVEPKSCDKTHTCPPCPAPEAAGGPSVFLFPPKPKDTLMISRTPEVTCVVVDVSHEDPEVKFNWYVDGVEVHNAKTKPREEQYASTYRVVSVLTVLHQDWLNGKEYKCKVSNKALPAPIEKTISKAKGQPREPQVYTLPPSRCELTKNQVSLSCAVKGFYPSDIAVEWESNGQPENNYKTTPPVLDSDGSFFLVSKLTVDKSRWQQGNVFSCSVMHEALHNHYTQKSLSLSPDYKDDDDK EPKSSDKTHTCPPCPAPELLGGPSVFLFPPKPKDTLMISRTPEVTCVVVDVSHEDPEVKFNWYVDGVEVHNAKTKPREEQYNSTYRVVSVLTVLHQDWLNGKEYKCKVSNKALPAPIEKTISKAKGQPREPQVCTLPPSRDELTKNQVSLWCLVKGFYPSDIAVEWESNGQPENNYKTTPPVLDSDGSFFLYSKLTVDKSRWQQGNVFSCSVMHEALHNRYTQKSLSLSP light: DIVMTQSPLSLPVTPGEPASISCRSSQSLVHSNRNTYLHWYQQKPGQAPRLLIYKVSNRFSGVPDRFSGSGSGTDFTLKISRVEAEDVGVYYCGQGTQVPYTFGQGTKLEIKRTVAAPSVFIFPPSDEQLKSGTASVVCLLNNFYPREAKVQWKVDNALQSGNSQESVTEQDSKDSTYSLSSTLTLSKADYEKHKVYACEVTHQGLSSPVTKSFNRGEC | 3.16 |
| CE115HA000 D101H one-arm antibody (antibody, human IgG1, kappa, L234A L235A, N297A, name in Kabat numbering, one-arm antibody) heavy: QVQLVESGGGVVQPGRSLRLSCAASGFTFSNAWMHWVRQAPGKGLEWVAQIKAKSNNYATYYAESVKGRFTISRDDSKNSLYLQMNSLKTEDTAVYYCRYVHYGAYYGVHAWGQGTTVTVSSASTKGPSVFPLAPSSKSTSGGTAALGCLVKDYFPEPVTVSWNSGALTSGVHTFPAVLQSSGLYSLSSVVTVPSSSLGTQTYICNVNHKPSNTKVDKKVEPKSCDKTHTCPPCPAPEAAGGPSVFLFPPKPKDTLMISRTPEVTCVVVDVSHEDPEVKFNWYVDGVEVHNAKTKPREEQYASTYRVVSVLTVLHQDWLNGKEYKCKVSNKALPAPIEKTISKAKGQPREPQVYTLPPSRCELTKNQVSLSCAVKGFYPSDIAVEWESNGQPENNYKTTPPVLDSDGSFFLVSKLTVDKSRWQQGNVFSCSVMHEALHNHYTQKSLSLSPDYKDDDDK EPKSSDKTHTCPPCPAPELLGGPSVFLFPPKPKDTLMISRTPEVTCVVVDVSHEDPEVKFNWYVDGVEVHNAKTKPREEQYNSTYRVVSVLTVLHQDWLNGKEYKCKVSNKALPAPIEKTISKAKGQPREPQVCTLPPSRDELTKNQVSLWCLVKGFYPSDIAVEWESNGQPENNYKTTPPVLDSDGSFFLYSKLTVDKSRWQQGNVFSCSVMHEALHNRYTQKSLSLSP light: DIVMTQSPLSLPVTPGEPASISCRSSQSLVHSNRNTYLHWYQQKPGQAPRLLIYKVSNRFSGVPDRFSGSGSGTDFTLKISRVEAEDVGVYYCGQGTQVPYTFGQGTKLEIKRTVAAPSVFIFPPSDEQLKSGTASVVCLLNNFYPREAKVQWKVDNALQSGNSQESVTEQDSKDSTYSLSSTLTLSKADYEKHKVYACEVTHQGLSSPVTKSFNRGEC | 0.91 |
| CE115HA000 D101I one-arm antibody (antibody, human IgG1, kappa, L234A L235A, N297A, name in Kabat numbering, one-arm antibody) heavy: QVQLVESGGGVVQPGRSLRLSCAASGFTFSNAWMHWVRQAPGKGLEWVAQIKAKSNNYATYYAESVKGRFTISRDDSKNSLYLQMNSLKTEDTAVYYCRYVHYGAYYGVIAWGQGTTVTVSSASTKGPSVFPLAPSSKSTSGGTAALGCLVKDYFPEPVTVSWNSGALTSGVHTFPAVLQSSGLYSLSSVVTVPSSSLGTQTYICNVNHKPSNTKVDKKVEPKSCDKTHTCPPCPAPEAAGGPSVFLFPPKPKDTLMISRTPEVTCVVVDVSHEDPEVKFNWYVDGVEVHNAKTKPREEQYASTYRVVSVLTVLHQDWLNGKEYKCKVSNKALPAPIEKTISKAKGQPREPQVYTLPPSRCELTKNQVSLSCAVKGFYPSDIAVEWESNGQPENNYKTTPPVLDSDGSFFLVSKLTVDKSRWQQGNVFSCSVMHEALHNHYTQKSLSLSPDYKDDDDK EPKSSDKTHTCPPCPAPELLGGPSVFLFPPKPKDTLMISRTPEVTCVVVDVSHEDPEVKFNWYVDGVEVHNAKTKPREEQYNSTYRVVSVLTVLHQDWLNGKEYKCKVSNKALPAPIEKTISKAKGQPREPQVCTLPPSRDELTKNQVSLWCLVKGFYPSDIAVEWESNGQPENNYKTTPPVLDSDGSFFLYSKLTVDKSRWQQGNVFSCSVMHEALHNRYTQKSLSLSP light: DIVMTQSPLSLPVTPGEPASISCRSSQSLVHSNRNTYLHWYQQKPGQAPRLLIYKVSNRFSGVPDRFSGSGSGTDFTLKISRVEAEDVGVYYCGQGTQVPYTFGQGTKLEIKRTVAAPSVFIFPPSDEQLKSGTASVVCLLNNFYPREAKVQWKVDNALQSGNSQESVTEQDSKDSTYSLSSTLTLSKADYEKHKVYACEVTHQGLSSPVTKSFNRGEC | 1.73 |
| CE115HA000 D101K one-arm antibody (antibody, human IgG1, kappa, L234A L235A, N297A, name in Kabat numbering, one-arm antibody) heavy: QVQLVESGGGVVQPGRSLRLSCAASGFTFSNAWMHWVRQAPGKGLEWVAQIKAKSNNYATYYAESVKGRFTISRDDSKNSLYLQMNSLKTEDTAVYYCRYVHYGAYYGVKAWGQGTTVTVSSASTKGPSVFPLAPSSKSTSGGTAALGCLVKDYFPEPVTVSWNSGALTSGVHTFPAVLQSSGLYSLSSVVTVPSSSLGTQTYICNVNHKPSNTKVDKKVEPKSCDKTHTCPPCPAPEAAGGPSVFLFPPKPKDTLMISRTPEVTCVVVDVSHEDPEVKFNWYVDGVEVHNAKTKPREEQYASTYRVVSVLTVLHQDWLNGKEYKCKVSNKALPAPIEKTISKAKGQPREPQVYTLPPSRCELTKNQVSLSCAVKGFYPSDIAVEWESNGQPENNYKTTPPVLDSDGSFFLVSKLTVDKSRWQQGNVFSCSVMHEALHNHYTQKSLSLSPDYKDDDDK EPKSSDKTHTCPPCPAPELLGGPSVFLFPPKPKDTLMISRTPEVTCVVVDVSHEDPEVKFNWYVDGVEVHNAKTKPREEQYNSTYRVVSVLTVLHQDWLNGKEYKCKVSNKALPAPIEKTISKAKGQPREPQVCTLPPSRDELTKNQVSLWCLVKGFYPSDIAVEWESNGQPENNYKTTPPVLDSDGSFFLYSKLTVDKSRWQQGNVFSCSVMHEALHNRYTQKSLSLSP light: DIVMTQSPLSLPVTPGEPASISCRSSQSLVHSNRNTYLHWYQQKPGQAPRLLIYKVSNRFSGVPDRFSGSGSGTDFTLKISRVEAEDVGVYYCGQGTQVPYTFGQGTKLEIKRTVAAPSVFIFPPSDEQLKSGTASVVCLLNNFYPREAKVQWKVDNALQSGNSQESVTEQDSKDSTYSLSSTLTLSKADYEKHKVYACEVTHQGLSSPVTKSFNRGEC | 4.37 |
